± gives the standard deviation of the averaged measurements.
Test system: ATP
Experiment: switch fluorescence ratio, 500 uM ATP over buffer (Cy3 cluster intensity, sum of 5 cycles each) (fold (ratio)); higher = stronger signal-on switching upon ATP binding; sequences stand for … in TCGTCGGCAGCGTCAGATGTGTATAAGAGACAGTTTTTTTTTTTTTTTTTTTTTTTTT…TC
Conditions: aptamer strand: ATP DNA aptamer (quencher-CACCTGGGGGAGTATTGCGGAGGAAGG + anchor), 100 nM annealed; ATP concentration: 500 uM
Procedure, shortened: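 For every switch-domain sequence, the fluorescence ratio is the mean of per-cluster values, each being summed target-cycle Cy3 intensity over summed buffer-cycle Cy3 intensity. Clusters outside 100-1000 RFU were excluded. On a modified Illumina MiSeq flow-cell, the Cy3-labelled switching-strand clusters were annealed to 100 nM quencher-labelled ATP aptamer, imaged in selection buffer and then after 15 min with 500 uM ATP at 22 °C. Five such cycles were run, with NaOH stripping and re-annealing between them.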
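Further: ATP exposure 15 min at 22 °C before imaging.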

Sequence	switch fluorescence ratio
TTTGGCTTAA	0.9962 ± 0.006
AATGGTTATC	0.9753 ± 0.0046
CAGGGAGAGG	1 ± 0.011
TTAAGCGAAG	0.953 ± 0.029
CGTTTAATAA	1.008 ± 0.0091
AGGGAAGGAT	1.01 ± 0.047
CGCGCTGACA	1.009 ± 0.0057
TGAAATTTTA	0.9926 ± 0.006
AGGCCCTTTA	1.12 ± 0.17
TGTATGAACT	0.98027 ± 3.7e-05
AAATCGTTCC	2.14 ± 0.082
AAGGCAGATC	1.05 ± 0.037
AGAGTCAGTG	0.982 ± 0.022
GTTCAAAGCG	0.999 ± 0.029
GGGCAGCTGG	0.981 ± 0.042
TAGGTGTTAT	1.02 ± 0.037
TTGCTGAGGA	0.962 ± 0.015
GTGGTCTGCC	0.958 ± 0.0044
TTAGGTTACT	1.028 ± 0.0039
GGCGGGGAGG	1.01 ± 0.033
TGGAGTATTT	0.9525 ± 0.005
GAGGGATGGG	0.975 ± 0.017
CCGGGTAAAA	1.03 ± 0.057
AGGTTGGGGG	0.981 ± 0.013
GGGCCACCAG	1.01 ± 0.032

Sequence	switch fluorescence ratio
TAATTTAGAT	1.028 ± 0.0095
GCTGGGGCTT	0.991 ± 0.014
CTGACGTAAG	1.26 ± 0.29
ATCGGTTTTG	1.01 ± 0.021
CGGGTAGTGG	0.995 ± 0.032
AGGGGCTATT	1.01 ± 0.014
AGGTGGGTTT	0.988 ± 0.044
TTCCCGCTGT	1.75 ± 0.023
CCGGGAGTAC	2.14 ± 0.55
TAATTGCGGG	0.9554 ± 0.0095
GGTTTCCTGG	0.971 ± 0.031
TTATGTGGGC	0.97 ± 0.022
CAATGAAAGC	1.04 ± 0.021
TCATTAGCTT	0.991 ± 0.012
GCTTCTCACA	0.981 ± 0.028
TGGTTACGGG	0.993 ± 0.012
AGGGGGCGGC	0.995 ± 0.031
TGGGGAAACC	2.35 ± 2.3
ACAACAGCAC	1.18 ± 0.03
TACCGTTTGC	1.19 ± 0.089
CATTTCCTGA	1.02 ± 0.038
GAGAAATGAT	0.984 ± 0.0087
GGGTGACCAA	0.969 ± 0.013
TGGGTAAGTA	0.993 ± 0.012
GGCGGCGCGT	1.04 ± 0.019

Sequence	switch fluorescence ratio
AATGGCTTTG	1.029 ± 0.0062
CACGTAATTA	1.25 ± 0.048
GGTTAGATGT	0.9766 ± 0.0075
TATTTTTTTC	1 ± 0.018
TAAAGGAAGT	0.983 ± 0.04
TTTGCTTGGT	0.994 ± 0.03
CGGTCGCGTG	0.988 ± 0.02
TAGAGCTAAT	1.09 ± 0.17
CTTTTAACTC	1.01 ± 0.024
AAAGGTAACG	1.001 ± 0.0021
CATCAATAAT	1.045 ± 0.0083
GTGTGATGTT	0.99 ± 0.042
TAGTCCATCG	0.998 ± 0.012
TGGTTTGGAA	0.998 ± 0.05
AGGGGAGAGT	1 ± 0.014
TTGGTATACG	0.997 ± 0.026
CTCAGGAGGG	0.997 ± 0.047
GGGGATTACG	0.984 ± 0.026
TTTCATGATC	1 ± 0.026
TATGTGTGCG	1.02 ± 0.017
ACGGTGAGGG	1.02 ± 0.026
TTGAGAGTCT	1.01 ± 0.18
GGCATAGCCC	0.954 ± 0.024
ATGGTCGCGC	0.993 ± 0.04
ATACTTATAT	1.038 ± 0.0097

Sequence	switch fluorescence ratio
TTAAATTCGA	0.966 ± 0.036
TGGGGTACTT	0.973 ± 0.027
CGTTATCGGA	1 ± 0.041
ACTTCTAGCG	1.02 ± 0.072
ATATGACTTT	1.01 ± 0.052
TTTGTCCTTT	1.029 ± 0.0084
AACTAGTGGG	1.02 ± 0.024
TTATTAATGT	1.02 ± 0.021
GGAGACGTTA	1.02 ± 0.052
TATATTCTTT	1 ± 0.023
GGTGGAAGAG	0.982 ± 0.036
GCATCGGGGT	1 ± 0.032
TTAAAGCCTT	1.03 ± 0.053
CGGGCTTGGC	1.01 ± 0.0022
CGGTATGGGA	0.979 ± 0.044
CGGGGTACCT	1.01 ± 0.054
GAAGGAGTGG	1.027 ± 0.01
AAGGGGAATG	1.02 ± 0.056
AAGGGGGCAT	0.979 ± 0.033
TATTTGGGTG	1.05 ± 0.023
AATTGTTGTG	1 ± 0.022
TTTTTTCATG	0.988 ± 0.033
CGCCATGGCC	0.9924 ± 0.0066
GGCTTCTGAT	0.999 ± 0.022
TTTCCATTAA	1 ± 0.044

Sequence	switch fluorescence ratio
GGTATCAGGG	0.999 ± 0.022
GGTTGGGGGT	1.01 ± 0.045
TCGGCGTCAG	0.9817 ± 0.0041
TGAAAACACG	1.17 ± 0.22
CGTTGGGTCT	1 ± 0.018
GGGTACGAGT	0.9314 ± 0.0031
TGCTGAAGAT	1.003 ± 0.0067
CGGTTTTAGC	0.968 ± 0.042
ACTTGTGACA	1.12 ± 0.18
ACTATGGCCC	1.03 ± 0.017
GAGGCTAATT	1.03 ± 0.057
GAAATTAATA	0.993 ± 0.027
GTGTTAGTCC	1.05 ± 0.11
GAAAATTTTT	1.06 ± 0.044
GGACGATTTG	1.05 ± 0.054
TTCCCGCGTA	1.19 ± 0.13
ATTAATCAGT	1.002 ± 0.0083
TTAGGGTTGG	0.99 ± 0.034
TCCAGGAGTG	1.15 ± 0.019
CCAGTAAGTG	1.09 ± 0.03
CGTAACTGGT	0.978 ± 0.018
GGGGGAAACG	0.989 ± 0.031
TTCGGGTAAG	0.987 ± 0.043
TTGTTTTTCC	1.03 ± 0.057
TATAACCAGG	1.33 ± 0.086

Sequence	switch fluorescence ratio
AGGGGAAAAT	0.996 ± 0.028
ATCTTCAGGT	0.995 ± 0.0013
ACGGTAGAAA	1.01 ± 0.012
TAAATTAGCC	1.03 ± 0.014
AATAATAGGT	1.016 ± 0.007
GATAGTAGTT	0.9851 ± 0.0096
CGTATCCGTA	0.987 ± 0.042
TATGTCATCG	1.01 ± 0.028
TAAAGCTGCT	0.9705 ± 0.0071
GGGTGGCACA	1 ± 0.0046
CTTGAAAACT	1.04 ± 0.044
AGCAAAGTGT	1.02 ± 0.071
GGCCCCCGGT	1.1 ± 0.068
TTGATGAACA	1 ± 0.024
GTTGTAAGCA	0.982 ± 0.053
TTTACCCAGT	1.04 ± 0.066
GAGTGAGGCA	0.981 ± 0.02
GGGCGCTAGG	0.971 ± 0.014
ATGAGTTGGG	0.999 ± 0.024
AAATGCTTAT	1.04 ± 0.022
GACGTTTTTG	0.996 ± 0.011
GGGAATAGT	0.9898 ± 0.0014
ACTTAAAAGG	1.0122 ± 0.00061
TAGATATGCG	1.03 ± 0.015
GATTATTGGA	1.01 ± 0.026

Sequence	switch fluorescence ratio
TTTAAGAGAT	0.998 ± 0.028
GGAACTTGTG	0.9732 ± 0.0075
AAGGGGTTCG	1.05 ± 0.023
TAGCTCGGTG	1 ± 0.042
TTCGGTCTAA	0.979 ± 0.023
TTGTAGAGCT	0.949 ± 0.017
TGAGGGTTGT	1.01 ± 0.046
TGAACTGTTC	1.04 ± 0.069
TTTTGGAAGT	0.993 ± 0.042
TGGGATTTGT	0.9881 ± 0.0029
AGTATGGAGC	0.9983 ± 0.004
TAGTCATTCA	0.981 ± 0.026
CGGTACCGGG	1.022 ± 0.0061
GAGCTACGTA	1.04 ± 0.026
AGTTGATGGG	0.978 ± 0.049
CGAAGAACTA	1.023 ± 0.0028
TGGGGTTTCG	0.973 ± 0.038
TTAGGACTT	1.02 ± 0.073
TTTGGGTTCA	0.972 ± 0.026
TCCCGTTTGA	1.01 ± 0.016
TTGTCCTCCT	1.11 ± 0.11
TTTTAAGAGG	1.01 ± 0.046
ATTCTGATTG	1.02 ± 0.033
GTTGCAGCGC	0.982 ± 0.013
TCAGTCTGCC	1.03 ± 0.052

Sequence	switch fluorescence ratio
TTTCTGGGTC	1.02 ± 0.068
TAGCCAAGTC	1.02 ± 0.01
GGAGTGTTGG	1.002 ± 0.0051
TGAGTTTTTG	0.998 ± 0.022
TCTCTACTGG	1.03 ± 0.058
AGGTTGTGAC	0.989 ± 0.029
ATATCCGGTT	1 ± 0.041
ATGGAGCTAC	4.67 ± 1.3
ATTCCGGCGG	0.976 ± 0.015
ACGGGGTGCA	0.99 ± 0.017
ATCGAAAAAC	1.01 ± 0.05
AATGGCGTTG	1 ± 0.057
ATTTGTCAGA	0.98 ± 0.015
TTGTTGTCTT	1.02 ± 0.043
AGGTTAAAAT	1.03 ± 0.024
AGGGGGCAGG	1.01 ± 0.017
TCAATTTGTT	0.992 ± 0.033
TAGAAACCCG	1.04 ± 0.024
GCATATCTAG	1.03 ± 0.041
GGGAGTTAAT	0.97 ± 0.019
GACTATTGGT	0.969 ± 0.0098
AAACTTGGGG	1 ± 0.035
AAGAGGTTGC	0.99 ± 0.044
GATGCGTGGC	0.998 ± 0.027
CATCTTAGTG	1.02 ± 0.057
